Test results taken from article PMC3199388.
Positions count from the first letter of the chain named. Read-outs that look alike come from different tables or passages of the source.

T1: Dcr1 dsRBD R1322A (loop 4) (Schizosaccharomyces pombe, UniProt Q09884 1258-1358, R1322A)
T1 sequence: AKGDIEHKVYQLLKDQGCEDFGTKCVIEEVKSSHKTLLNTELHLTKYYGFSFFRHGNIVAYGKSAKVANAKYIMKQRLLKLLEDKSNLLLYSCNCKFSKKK

T2: Dcr1 dsRBD K1265A (helix 1) (Schizosaccharomyces pombe, UniProt Q09884 1258-1358, K1265A)
T2 sequence: T1 sequence with K8A, A65R

T3: Dcr1 C-terminal extended dsRBD (Schizosaccharomyces pombe, UniProt Q09884 1258-1358)
T3 sequence: T1 sequence with A65R

B1: dsDNA 24 bp (DNAfwd/DNArev) (dsDNA)
DNA 1: GGGATCAATATGCTAAGCGATCCC
DNA 2: GGGATCGCTTAGCATATTGATCCC
B2: dsRNA 24 bp (RNAfwd/RNArev) (dsRNA)
RNA 1: GGGAUCAAUAUGCUAAGCGAUCCC
RNA 2: GGGAUCGCUUAGCAUAUUGAUCCC

Tests used:
Test in all cases: ITC
[1] = target: T1, Dcr1 dsRBD R1322A (loop 4)
[2] = target: T2, Dcr1 dsRBD K1265A (helix 1)
[3] = target: T3, Dcr1 C-terminal extended dsRBD
[4] = target: T3, Dcr1 C-terminal extended dsRBD; remark: listed apart in the source

Binder | binding result [1] | binding result [2] | Kd [3] | Kd [4]
B1 | no binding | no binding | 1500 nM | 
B2 | no binding | no binding |  | 800 nM
